Measurements taken from patent US20030170203A1 (Human Genome Sciences, published 2003).

T1: recombinant, untagged TNF-gamma-beta protein (aa 72-251) from E. coli (human, UniProt O95150 72-251)
T1 construct: Purified from E. coli
T1 sequence (looked up): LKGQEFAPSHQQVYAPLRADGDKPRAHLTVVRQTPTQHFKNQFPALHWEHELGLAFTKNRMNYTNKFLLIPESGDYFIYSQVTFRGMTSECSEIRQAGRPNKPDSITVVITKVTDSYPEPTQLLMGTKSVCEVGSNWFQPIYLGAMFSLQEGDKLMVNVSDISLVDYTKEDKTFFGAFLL

T2: FLAG-tagged soluble form of TNF-gamma-beta (aa 72-251) (human, UniProt O95150 72-251)
T2 construct: also called FLAG-TL1β; FLAG-TNF-gamma-beta; not shown: FLAG tag of vector pFLAGCMV1
T2 sequence (looked up): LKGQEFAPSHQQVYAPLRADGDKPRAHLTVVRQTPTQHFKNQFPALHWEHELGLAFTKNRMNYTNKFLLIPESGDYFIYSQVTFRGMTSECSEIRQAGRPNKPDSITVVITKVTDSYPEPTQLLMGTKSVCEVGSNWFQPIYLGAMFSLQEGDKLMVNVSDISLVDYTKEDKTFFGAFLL

T3: full length TNF-gamma-beta expressed on the cell surface (human, UniProt O95150 1-251)
T3 construct: whole, on cells; also called TNF-gamma-beta expressing cells
T3 sequence (looked up): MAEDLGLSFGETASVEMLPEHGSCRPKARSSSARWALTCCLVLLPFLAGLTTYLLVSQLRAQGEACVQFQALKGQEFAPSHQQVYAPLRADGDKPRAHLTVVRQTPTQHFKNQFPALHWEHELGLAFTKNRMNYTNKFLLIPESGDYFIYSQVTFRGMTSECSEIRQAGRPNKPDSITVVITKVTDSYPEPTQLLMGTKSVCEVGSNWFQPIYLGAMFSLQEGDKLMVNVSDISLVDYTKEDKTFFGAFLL


How the values were obtained:
[1] = molecular target: T1, recombinant, untagged TNF-gamma-beta …; test: BIAcore 3000 (SPR), receptor-Fc amine-coupled to CM5 chip, TNF-gamma-beta in flow
Method: TNFR-Fc were covalently immobilized to the BIAcore sensor chip (CM5 chip) via amine groups using N-ethyl-N′-(dimethylaminopropyl) carbodiimide/N-hydroxysuccinimide chemistry. […] The amount of bound protein was determined during washing of the flow cell with HBS buffer (10 mM HEPES, pH 7.4, 150 mM NaCl, 3.4 mM EDTA, 0.005% Surfactant P20). The flow cell surface was regenerated by displacing bound protein by washing with 20 microliters of 10 mM glycine-HCl, pH 2.3. For kinetic analysis, the on and off rates were determined using the kinetic evaluation program in BIAevaluation 3 software using a 1:1 binding model and the global analysis method.

[2] = molecular target: T2, FLAG-tagged soluble form of …; test: co-immunoprecipitation with protein A-Sepharose, anti-Flag M2 immunoblot
Text: The beads were then precipitated and washed extensively with PBST buffer (PBS, 0.5% Triton X-100) before boiled in SDS-sample buffer. Proteins were resolved on 4-20% Tris-Glycine gels (NOVEX), transferred to nitrocellulose membranes, and blotted with anti-Flag M2 monoclonal antibody (1 microgram/ml, Sigma) and horseradish peroxidase (HRP)-conjugated goat anti-mouse IgG antibody (0.5 microgram/ml).

[3] = molecular target: T3, full length TNF-gamma-beta expressed on …; test: flow cytometry on HEK293F stable transfectants expressing full length TNF-gamma-beta
Method: TR6 has been previously described as a decoy receptor (Pitti et al., Nature 396:699-703 (1998); Yu et al., J. Biol Chem. 274:13733-6 (1999)) capable of competing with Fas and HveA for binding of FasL and LIGHT, respectively.
One million cells, in 0.1 ml of FACS buffer (PBS, 0.1% BSA, 0.1% NaN₃), were incubated with 0.1-1 microgram of protein or antibody at RT for 15 min. The cells were washed with 3 ml of FACS buffer, reacted with biotinylated primary antibody, and stained with PE-conjugated secondary antibody at RT for 15 min. Cells were then washed again, resuspended in 0.5 microgram/ml of propidium iodide, and live cells were gated and analyzed on a FACScan using the CellQuest software (BD Biosciences).

binding result [1]	binding result [2]	binding result [3]	Binder
no binding (tested: 3-370 nM)	–	–	BCMA-Fc (Fc fusion, human, UniProt Q02223 1-54, looked up, Control receptor surface of the BIAcore analysis; not shown: Fc) MLQMAGQCSQNEYFDSLLHACIPCQLRCSSNTPPLTCQRYCNASVTNSVKGTNA
–	no binding	no binding	extracellular domain of human TACI (aa 1-159) fused at its C-terminus to the Fc domain of human IgG1 (Fc fusion, UniProt O14836 1-159, looked up, not shown: a dimerising Fc or GST, range 1-159; also called TACI-Fc) MSGLGRSRRGGRSRVDQEERFPQGLWTGVAMRSCPEEQYWDPLLGTCMSCKTICNHQSQRTCAAFCRSLSCRKEQGKFYDHLLRDCISCASICGQHPKQCAYFCENKLRSPVNLPPELRRQRSGEVENNSDNSGRYQGLEHRGSEASPALPGLKLSADQ
